Source: the supplement of paper PMC10567573

B1: C1orf55 (parent)
chain: FTSPDYQQQCHEMAERLEDSVLKG

Variants of: B1
Assay: protein stability index of a GFP-peptide fusion (GPS, HEK-293T) (PSI 1-6); higher = more stable
Conditions: c terminus: a fixed tail appended
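Further: lentivirally expressed fusions sorted by FACS into six bins by GFP to DsRed ratio, PSI derived from sequencing read proportions per bin multiplied by bin number.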

Protein stability index of substitutions, site by site:
K23: F 1.5, G 2.38, Q 2.23, V 3.3, C 1.79, P 2.35, H 1.89, R 2.57, I 2.1, A 1.4, L 2.37, W 2.39, S 2.24, T 2.13, E 2.35, N 2.6, D 2.57, M 2.02
H11: V 2.52, E 2.95, I 2.61, M 2.33, Q 2.87, C 1.8, F 2.26, D 2.83, N 2.13, L 1.87, Y 1.87, P 2.66, T 2.1, A 2.83, K 2.1, G 2.35, R 2.45, S 2.13
Y6: T 4.41, N 4.27, K 4.44, I 3.94, G 4.76, S 4.63, V 4.37, L 4.3, H 4.48, R 4.24, W 3.06, P 4.14, Q 4.78, M 3.94
M13: I 1.97, P 2.83, W 2.02, L 2.25, D 2.55, V 1.91, S 2.53, E 2.62, R 2.09, K 2.79, Y 1.93, H 2.27, N 2.66, Q 2.24, T 2.1, A 2.03, C 1.97, G 2.56, F 1.85
E18: F 1.65, P 1.78, C 1.99, D 1.9, Q 2.05, H 1.74, I 1.52, A 1.96, Y 1.79, W 1.55, S 2.06, L 1.76, K 1.74, R 2.36, V 1.4, N 1.44, G 2.23, T 1.4, M 1.97
Q9: E 3.26, M 2.08, K 1.92, F 2.12, V 2.21, T 1.38, A 1.95, R 1.28, N 1.52, H 1.85, P 2.59, I 1.29, D 3.87, Y 2.09, W 2.98, G 1.92, S 1.94, C 1.84, L 1.7
Q7: I 1.81, K 2.07, N 3.16, Y 3.06, F 3.33, G 2.05, A 1.12, S 2.24, D 4.18, R 1.85, M 2.01, H 2.14, T 2.02, P 2.27, E 3.92, L 2.13, V 2.02, C 1.68
L17: F 2.01, I 2.12, C 2.25, G 2.54, D 3.18, M 1.92, E 2.97, H 2.52, A 2.86, P 2.66, S 2.47, V 2.35, K 1.97, T 2.9, N 2.23, W 1.98, Q 2.34, R 2.72, Y 2.22
V21: C 2.12, L 2.17, Q 2.21, Y 2.06, G 2.09, P 2.73, R 2.33, S 2.56, N 2.94, H 2.41, I 2.55, A 3.08, D 2.34, F 2.01, M 1.9, T 2.65, K 2.99, W 1.68, E 2.87
L22: Y 2.26, Q 2.79, T 2.22, C 2.62, K 2.12, D 2.48, S 2.76, R 2.71, M 2.35, W 2.21, N 2.93, I 2.36, H 2.05, E 2.1, V 2.75, G 2.57, F 1.9, P 2.97, A 2.42
E15: K 1.59, D 1.82, A 2.8, C 1.96, Q 1.67, S 2.04, I 1.86, T 2.62, M 1.8, G 2.25, V 2.42, N 1.36, R 2.04, H 2.34, L 1.57, F 1.78, P 2.33, W 1.11, Y 1.22
A14: M 2.27, R 2.27, E 2.63, Y 1.92, F 2.21, V 2, P 2.48, W 2.1, I 2.45, N 2.75, S 2, D 2.86, G 2.48, Q 2.45, K 2.52, H 2.39, C 2.06, L 2.26, T 2.07
R16: C 2.31, G 2.49, V 2.45, N 2.52, H 2.33, D 2.85, W 1.9, L 1.77, P 2.56, M 2.44, Q 2.4, E 2.45, S 2.21, Y 2.04, I 2.94, K 1.93, F 2.29, T 2.38, A 2.08
D19: Y 1.91, H 2.32, T 1.76, G 1.77, M 2.08, N 2.37, Q 2.04, K 1.35, I 2.86, V 2.03, A 1.83, E 2.04, P 1.98, R 1.65, W 2.23, S 2.87, C 2.04, F 1.79, L 1.91
Q8: P 4.29, S 2.18, L 1.68, M 1.59, W 2.04, V 2.47, A 1.96, F 2.44, C 1.64, E 3.44, H 2.35, G 2.81, K 2, N 2.62, I 1.63, Y 1.99, T 2.6, R 1.72, D 3.9
E12: T 1.47, D 2.56, Y 2.35, H 2.36, C 1.93, I 2.98, V 1.88, R 1.87, M 1.89, P 1.5, S 1.73, A 2.79, W 1.85, G 2.13, L 2.7, K 1.32, N 1.7, F 3.35, Q 2.23
S20: V 2.7, Q 2.9, H 1.75, W 2.08, K 1.75, N 1.55, E 2.67, Y 1.91, T 2.08, L 2.93, D 2.3, C 2.4, A 1.95, F 1.85, M 2.06, P 2.12, R 2.47, G 1.72, I 2.26
C10: F 2.14, Q 3.47, E 4.53, I 2.59, M 2.41, P 3.87, H 2.74, R 3.69, K 3.46, L 2.55, A 3.17, T 2.26, D 4.68, N 3.37, S 2.87, V 2.29, G 3.29, Y 3.3, W 2.05
